Assay results reported in article doi:10.1101/2020.07.24.212647 (bioRxiv, 2020).
Where two headings read alike, the source gives them in different places.

Experiments:
[1] = biological target: Corynebacterium mustelae E2p catalytic domain (CmE2p_CD) (Corynebacterium mustelae); test: crystal structure
AUC [2] = biological target: the molecule itself; test: AUC
crystal structure = biological target: the molecule itself; test: crystal structure
AUC [3] = biological target: the molecule itself; test: AUC; remark: listed apart in the source

Molecule: Corynebacterium mustelae E2p catalytic domain (CmE2p_CD) (domain or fragment)
- stoichiometry N [1]: 3

B1: C. glutamicum E2p catalytic domain (CgE2p_CD) (domain or fragment)
chain: LRGTTQKVNRIREITAMKTVEALQISAQLTQLHEVDMTRVAELRKKNKPAFIEKHGVNLTYLPFFVKAVVEALVSHPNVNASFNAKTKEMTYHSSVNLSIAVDTPAGLLTPVIHDAQDLSIPEIAKAIVDLADRSRNNKLKPNDLSGGTFTITNIGSEGALSDTPILVPPQAGILGTGAIVKRPVVITEDGIDSIAIRQMVFLPLTYDHQVVDGADAGRFLTTIKDRLETANFEGDLQL
- stoichiometry N (AUC [2]): 3

B2: C. glutamicum E2p, full-length (CgE2p_FL) (enzyme)
chain: MAFSVEMPELGESVTEGTITQWLKSVGDTVEVDEPLLEVSTDKVDTEIPSPVAGVILEIKAEEDDTVDVGGVIAIIGDADETPANEAPADEAPAPAEEEEPVKEEPKKEAAPEAPAATGAATDVEMPELGESVTEGTITQWLKAVGDTVEVDEPLLEVSTDKVDTEIPSPVAGTIVEILADEDDTVDVGAVIARIGDANAAAAPAEEEAAPAEEEEPVKEEPKKEAAPEAPAATGAATDVEMPELGESVTEGTITQWLKAVGDTVEVDEPLLEVSTDKVDTEIPSPVAGTIVEILADEDDTVDVGAVIARIGDANAAAAPAEEEAAPAEEEEPVKEEPKKEEPKKEEPKKEAATTPAAASATVSASGDNVPYVTPLVRKLAEKHGVDLNTVTGTGIGGRIRKQDVLAAANGEAAPAEAAAPVSAWSTKSVDPEKAKLRGTTQKVNRIREITAMKTVEALQISAQLTQLHEVDMTRVAELRKKNKPAFIEKHGVNLTYLPFFVKAVVEALVSHPNVNASFNAKTKEMTYHSSVNLSIAVDTPAGLLTPVIHDAQDLSIPEIAKAIVDLADRSRNNKLKPNDLSGGTFTITNIGSEGALSDTPILVPPQAGILGTGAIVKRPVVITEDGIDSIAIRQMVFLPLTYDHQVVDGADAGRFLTTIKDRLETANFEGDLQL
- stoichiometry N (AUC [2]): 3

B3: C. glutamicum E2p catalytic core and peripheral subunit binding domain (CgE2p-ΔLBDs) (domain or fragment)
chain: YVTPLVRKLAEKHGVDLNTVTGTGIGGRIRKQDVLAAANGEAAPAEAAAPVSAWSTKSVDPEKAKLRGTTQKVNRIREITAMKTVEALQISAQLTQLHEVDMTRVAELRKKNKPAFIEKHGVNLTYLPFFVKAVVEALVSHPNVNASFNAKTKEMTYHSSVNLSIAVDTPAGLLTPVIHDAQDLSIPEIAKAIVDLADRSRNNKLKPNDLSGGTFTITNIGSEGALSDTPILVPPQAGILGTGAIVKRPVVITEDGIDSIAIRQMVFLPLTYDHQVVDGADAGRFLTTIKDRLETANFEGDLQL
- binding result (crystal structure): binds

B4: M. tuberculosis E2b, full-length (MtE2b_FL) (enzyme)
chain: MSGEDSIRSFPVPDLGEGLQEVTVTCWSVAVGDDVEINQTLCSVETAKAEVEIPSPYAGRIVELGGAEGDVLKVGAELVRIDTGPTAVAQPNGEGAVPTLVGYGADTAIETSRRTSRPLAAPVVRKLAKELAVDLAALQRGSGAGGVITRADVLAAARGGVGAGPDVRPVHGVHARMAEKMTLSHKEIPTAKASVEVICAELLRLRDRFVSAAPEITPFALTLRLLVIALKHNVILNSTWVDSGEGPQVHVHRGVHLGFGAATERGLLVPVVTDAQDKNTRELASRVAELITGAREGTLTPAELRGSTFTVSNFGALGVDDGVPVINHPEAAILGLGAIKPRPVVVGGEVVARPTMTLTCVFDHRVVDGAQVAQFMCELRDLIESPETALLDL
- stoichiometry N (AUC [3]): 24
